Measurements taken from US10562936B2, “Ligands for integrin αvβ6, synthesis and uses thereof” (Technische Universitat Munchen, priority 2015, dated 2020).
Like-named read-outs stand apart in the source and are kept apart here. Square brackets hold non-standard residues; d marks the D form. Side chains are listed from the residue outwards. Abu = CC[C@H](N)C(=O)O; Cy5.5 = Cyanine-5.5; Ahx = NCCCCCC(=O)O; βAla = NCCC(=O)O

Experiments:
[1] = target: αvβ6 (Homo sapiens, UniProt P06756+P18564); conditions: from WO 01/05810; cited from earlier work
[2] = target: integrin α5β1 (soluble integrin) (UniProt P08648); test: solid-phase binding assay, internal standard; coated fibronectin, soluble α5β1
integrin α5β1 (soluble integrin) (UniProt P08648), sequence (P08648 42-995, chain 1 of 2): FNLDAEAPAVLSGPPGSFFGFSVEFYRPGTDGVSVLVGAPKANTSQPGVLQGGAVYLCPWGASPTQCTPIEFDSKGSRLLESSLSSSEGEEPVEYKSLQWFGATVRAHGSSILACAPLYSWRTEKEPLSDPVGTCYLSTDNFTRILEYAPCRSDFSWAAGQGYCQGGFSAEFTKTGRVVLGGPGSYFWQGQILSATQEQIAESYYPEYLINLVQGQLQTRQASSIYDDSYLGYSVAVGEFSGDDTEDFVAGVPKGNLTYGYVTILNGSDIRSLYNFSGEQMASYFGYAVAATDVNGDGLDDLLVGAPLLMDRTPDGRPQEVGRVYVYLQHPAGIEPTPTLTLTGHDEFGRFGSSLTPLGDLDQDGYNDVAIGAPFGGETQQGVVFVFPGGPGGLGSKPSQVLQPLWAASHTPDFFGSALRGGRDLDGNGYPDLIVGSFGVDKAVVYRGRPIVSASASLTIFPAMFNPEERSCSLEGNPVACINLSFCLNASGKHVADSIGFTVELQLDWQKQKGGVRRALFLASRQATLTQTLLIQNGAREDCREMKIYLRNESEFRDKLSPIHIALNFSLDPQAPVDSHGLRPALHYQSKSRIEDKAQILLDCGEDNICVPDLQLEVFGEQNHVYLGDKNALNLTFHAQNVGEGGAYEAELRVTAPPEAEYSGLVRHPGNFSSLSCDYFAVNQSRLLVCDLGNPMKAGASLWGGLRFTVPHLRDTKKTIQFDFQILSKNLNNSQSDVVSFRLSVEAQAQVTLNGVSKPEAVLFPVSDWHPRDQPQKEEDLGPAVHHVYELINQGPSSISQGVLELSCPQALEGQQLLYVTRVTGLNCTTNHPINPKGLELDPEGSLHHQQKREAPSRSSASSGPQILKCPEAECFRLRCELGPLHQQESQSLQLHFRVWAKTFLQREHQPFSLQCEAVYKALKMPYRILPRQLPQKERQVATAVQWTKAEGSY
integrin α5β1 (soluble integrin) (UniProt P08648), sequence (P05556 21-728, chain 2 of 2, further chain): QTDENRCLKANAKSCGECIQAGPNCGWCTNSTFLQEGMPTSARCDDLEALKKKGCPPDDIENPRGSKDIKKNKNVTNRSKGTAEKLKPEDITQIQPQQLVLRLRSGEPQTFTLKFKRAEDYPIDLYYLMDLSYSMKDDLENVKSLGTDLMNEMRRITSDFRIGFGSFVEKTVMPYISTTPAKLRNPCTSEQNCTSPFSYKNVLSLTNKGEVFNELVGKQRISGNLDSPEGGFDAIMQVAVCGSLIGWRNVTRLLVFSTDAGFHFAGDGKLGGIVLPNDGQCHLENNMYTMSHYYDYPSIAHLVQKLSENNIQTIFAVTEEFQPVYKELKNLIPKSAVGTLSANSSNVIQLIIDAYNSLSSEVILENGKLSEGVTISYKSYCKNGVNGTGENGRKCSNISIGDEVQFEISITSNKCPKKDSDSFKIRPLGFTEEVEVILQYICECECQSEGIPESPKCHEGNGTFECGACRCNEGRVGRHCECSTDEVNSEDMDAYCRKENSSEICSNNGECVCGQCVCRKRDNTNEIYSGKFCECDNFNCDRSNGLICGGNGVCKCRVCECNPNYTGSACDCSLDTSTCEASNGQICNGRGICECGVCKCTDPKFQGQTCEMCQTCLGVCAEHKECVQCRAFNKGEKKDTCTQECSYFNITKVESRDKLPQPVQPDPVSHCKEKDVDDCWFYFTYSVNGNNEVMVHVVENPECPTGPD

[3] = tested on: human oral squamous cell carcinoma (OSCC) cell line HN (high integrin αvβ6); test: Cell binding / fluorescence bioimaging of Cy5.5 conjugate on HN cells; assay type: cell-based
Excerpt: The human oral squamous cell carcinoma (OSCC) cell line HN were purchased from the German Collection of Microorganisms and Cell Cultures, Braunschweig, Germany (DSMZ no. ACC 417). HN cells derived from a cervical lymph node metastasis of a highly aggressive and invasive OSCC of the soft palate.^[9] As control cells, we used the human ovarian cancer cell line OVMZ6 with low integrin αvβ6 and high integrin αvβ3 expression.^[10] All cells were cultivated in Dulbecco's Modified Eagle's Medium (DMEM) (Sigma-Aldrich, St. Louis, Mo., USA), supplemented with 10% (v/v) fetal calf serum (FCS) (Gibco, LifeTechnologies™, Carlsbad, Calif., USA).
HN and OVMZ6 cells were cultivated for 24 h on fibronectin-coated microchamber slides at a density of 25×10^3/well, thereafter fixed in 2% (w/v) PFA for 15 min at r.t. and washed in PBS. The Cy5.5-conjugated compound 18-Cy5.5, dissolved in PBS, 5% (v/v) dimethyl sulfoxide (DMSO), was applied at a final concentration of […] for 1 h at r.t., followed by 3 washes in PBS. […] As control peptide served the non-binding cycl(R^betaADfK) labelled via lysine side-chain NH2 group with Cy5.5 fluorescent dye. After the incubation period, cells were washed 6 times in PBS and slides mounted. Fluorescence signal intensity was detected by the microscope Zeiss LSM 700 (Zeiss) as described above.

[4] = target: T1, integrin αvβ6 (soluble integrin) (UniProt P06756 31-992; P18564 22-707); test: solid-phase binding assay, internal standard; coated LAP, soluble αvβ6
T1 construct: Only 'soluble integrins' is said
T1 sequence (P06756 31-992, chain 1 of 2): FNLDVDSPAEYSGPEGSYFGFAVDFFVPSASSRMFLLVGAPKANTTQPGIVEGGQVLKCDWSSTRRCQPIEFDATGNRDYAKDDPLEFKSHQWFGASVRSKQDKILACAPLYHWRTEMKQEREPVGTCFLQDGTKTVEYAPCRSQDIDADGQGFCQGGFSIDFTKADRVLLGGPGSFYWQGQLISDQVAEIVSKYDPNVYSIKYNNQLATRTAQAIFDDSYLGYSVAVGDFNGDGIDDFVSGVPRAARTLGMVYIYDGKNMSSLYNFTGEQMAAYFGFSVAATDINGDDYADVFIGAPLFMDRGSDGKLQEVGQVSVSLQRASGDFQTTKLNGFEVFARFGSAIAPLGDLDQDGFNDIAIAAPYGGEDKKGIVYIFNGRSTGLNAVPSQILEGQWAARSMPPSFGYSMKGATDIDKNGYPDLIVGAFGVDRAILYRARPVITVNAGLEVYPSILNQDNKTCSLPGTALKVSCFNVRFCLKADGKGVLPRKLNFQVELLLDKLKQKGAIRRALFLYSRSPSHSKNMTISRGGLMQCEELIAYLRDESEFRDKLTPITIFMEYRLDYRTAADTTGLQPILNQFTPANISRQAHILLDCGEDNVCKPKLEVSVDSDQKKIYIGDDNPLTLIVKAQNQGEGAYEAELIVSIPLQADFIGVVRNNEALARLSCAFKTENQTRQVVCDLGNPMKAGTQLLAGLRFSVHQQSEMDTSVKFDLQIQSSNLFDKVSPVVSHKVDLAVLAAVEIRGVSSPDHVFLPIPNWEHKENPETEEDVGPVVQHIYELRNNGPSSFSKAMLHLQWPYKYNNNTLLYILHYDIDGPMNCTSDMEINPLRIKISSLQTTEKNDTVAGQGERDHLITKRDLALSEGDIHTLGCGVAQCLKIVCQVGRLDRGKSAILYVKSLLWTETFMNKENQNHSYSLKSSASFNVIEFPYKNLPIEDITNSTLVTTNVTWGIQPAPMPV
T1 sequence (P18564 22-707, chain 2 of 2): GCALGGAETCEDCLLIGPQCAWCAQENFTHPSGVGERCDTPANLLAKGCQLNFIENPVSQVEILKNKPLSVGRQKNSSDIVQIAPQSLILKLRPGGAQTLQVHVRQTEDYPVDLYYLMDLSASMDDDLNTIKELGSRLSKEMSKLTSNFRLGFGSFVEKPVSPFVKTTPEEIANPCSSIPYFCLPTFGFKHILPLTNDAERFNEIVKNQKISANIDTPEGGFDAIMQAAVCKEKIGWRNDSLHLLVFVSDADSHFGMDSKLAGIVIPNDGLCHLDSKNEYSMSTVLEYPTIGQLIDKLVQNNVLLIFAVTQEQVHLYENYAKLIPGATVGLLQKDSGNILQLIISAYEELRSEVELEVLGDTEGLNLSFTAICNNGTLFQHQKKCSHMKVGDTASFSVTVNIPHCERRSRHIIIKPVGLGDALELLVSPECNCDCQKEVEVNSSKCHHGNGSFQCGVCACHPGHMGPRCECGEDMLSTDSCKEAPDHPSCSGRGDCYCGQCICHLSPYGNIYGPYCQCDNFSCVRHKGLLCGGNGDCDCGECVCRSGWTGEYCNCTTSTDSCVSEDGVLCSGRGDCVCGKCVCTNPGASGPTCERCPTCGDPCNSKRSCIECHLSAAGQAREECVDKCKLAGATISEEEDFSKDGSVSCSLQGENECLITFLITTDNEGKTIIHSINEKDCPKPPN

[5] = target: T2, integrin αvβ8 (soluble integrin) (UniProt P06756 31-992; P26012 43-684); test: solid-phase binding assay, internal standard; coated LAP, soluble αvβ8
T2 construct: Only 'soluble integrins' is said
T2 sequence (P06756 31-992, chain 1 of 2): as the sequence (P06756 31-992, chain 1 of 2) above
T2 sequence (P26012 43-684, chain 2 of 2): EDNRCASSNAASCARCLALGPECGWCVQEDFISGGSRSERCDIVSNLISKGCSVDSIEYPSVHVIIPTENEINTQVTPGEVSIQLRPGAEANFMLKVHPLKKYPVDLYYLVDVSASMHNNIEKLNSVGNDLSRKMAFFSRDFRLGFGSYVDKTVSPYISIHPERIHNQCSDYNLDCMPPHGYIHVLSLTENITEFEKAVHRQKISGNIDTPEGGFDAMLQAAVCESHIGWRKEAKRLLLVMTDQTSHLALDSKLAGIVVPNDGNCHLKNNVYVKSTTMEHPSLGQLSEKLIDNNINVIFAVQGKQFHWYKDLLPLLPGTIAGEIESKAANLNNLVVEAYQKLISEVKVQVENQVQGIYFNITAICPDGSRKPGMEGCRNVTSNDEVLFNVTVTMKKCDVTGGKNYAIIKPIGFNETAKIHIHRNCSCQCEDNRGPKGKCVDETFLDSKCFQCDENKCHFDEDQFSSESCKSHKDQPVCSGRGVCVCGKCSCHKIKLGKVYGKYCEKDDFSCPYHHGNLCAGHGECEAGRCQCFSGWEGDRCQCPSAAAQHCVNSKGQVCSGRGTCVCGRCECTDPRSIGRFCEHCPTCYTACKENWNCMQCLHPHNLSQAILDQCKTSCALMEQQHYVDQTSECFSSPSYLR

[6] = target: T3, integrin αvβ3 (soluble integrin) (UniProt P06756 31-992; P05106 27-718); test: ratio of IC50s αvβ6:αvβ3, printed the other way round (6.1 for αvβ6 to 1 for αvβ3)
T3 construct: Only 'soluble integrins' is said
T3 sequence (P06756 31-992, chain 1 of 2): as the sequence (P06756 31-992, chain 1 of 2) above
T3 sequence (P05106 27-718, chain 2 of 2): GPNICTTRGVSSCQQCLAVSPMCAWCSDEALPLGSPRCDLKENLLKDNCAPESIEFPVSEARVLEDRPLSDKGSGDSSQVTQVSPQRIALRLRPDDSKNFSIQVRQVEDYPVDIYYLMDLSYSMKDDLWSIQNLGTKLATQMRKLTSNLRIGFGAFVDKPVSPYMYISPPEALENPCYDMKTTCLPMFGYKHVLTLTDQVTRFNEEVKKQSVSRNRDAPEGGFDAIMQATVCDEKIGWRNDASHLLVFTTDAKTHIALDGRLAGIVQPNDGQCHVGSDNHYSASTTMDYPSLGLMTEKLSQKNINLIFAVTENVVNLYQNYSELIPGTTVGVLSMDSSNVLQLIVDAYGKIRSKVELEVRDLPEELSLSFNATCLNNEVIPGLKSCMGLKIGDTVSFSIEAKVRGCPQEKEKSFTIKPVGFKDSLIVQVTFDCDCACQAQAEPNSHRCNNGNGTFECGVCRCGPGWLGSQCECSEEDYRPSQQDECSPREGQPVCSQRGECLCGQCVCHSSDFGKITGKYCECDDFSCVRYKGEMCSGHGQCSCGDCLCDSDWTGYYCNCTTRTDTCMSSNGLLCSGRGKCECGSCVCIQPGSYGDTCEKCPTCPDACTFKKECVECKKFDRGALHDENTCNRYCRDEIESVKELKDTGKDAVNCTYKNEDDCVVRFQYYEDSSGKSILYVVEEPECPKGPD

[7] = target: T1, integrin αvβ6 (soluble integrin); test: solid-phase binding assay, competition; coated LAP, soluble αvβ6
[8] = target: T3, integrin αvβ3 (soluble integrin); test: solid-phase binding assay, competition; coated vitronectin, soluble αvβ3
[9] = target: T3, integrin αvβ3 (soluble integrin); test: as above; remark: listed apart in the source
[10] = target: T4, integrin α5β1 (soluble integrin) (UniProt P08648 42-995; P05556 21-728); test: solid-phase binding assay, competition; coated fibronectin, soluble α5β1
T4 construct: Only 'soluble integrins' is said
T4 sequence (P08648 42-995, chain 1 of 2): as the sequence (P08648 42-995, chain 1 of 2) above
T4 sequence (P05556 21-728, chain 2 of 2): as the sequence (P05556 21-728, chain 2 of 2, further chain) above

[11] = target: T2, integrin αvβ8 (soluble integrin); test: solid-phase binding assay, competition; coated LAP, soluble αvβ8

Molecule: cyclo(RTDLdALR-Abu-Abu) (cyclo(RTDL[dD]ALR[Abu][Abu]); SMILES CC[C@@H]1NC(=O)[C@H](CCCNC(=N)N)NC(=O)[C@H](CC(C)C)NC(=O)[C@H](C)NC(=O)[C@@H](CC(=O)O)NC(=O)[C@H](CC(C)C)NC(=O)[C@H](CC(=O)O)NC(=O)[C@H]([C@@H](C)O)NC(=O)[C@H](CCCNC(=N)N)NC(=O)[C@H](CC)NC1=O)
- IC50 [1]: ~1 nM

Molecule: Cilengitide, c(-RGDf(NMe)V-) (peptide)
- IC50 [2]: 1 to 8 nM

Molecule: CC(C)C[C@@H]1NC(=O)[C@H](CC(=O)O)NC(=O)CNC(=O)[C@H](CCCNC(=N)N)NC(=O)[C@H](Cc2ccccc2)NC(=O)[C@H](CCCCN)N(C)C(=O)[C@H]2CCCN2C(=O)[C@H](Cc2ccccc2)NC(=O)[C@H](C)NC1=O [Compound 18, F R G D L A F p (NMe)K]
- binding competition: fluorescence signal intensity of 18-Cy5.5 after pre-incubation ([3]; 10-fold molar excess of unlabeled analogue for 1 h at r.t. prior to 18-Cy5.5): strong reduction in fluorescence signal intensity

Molecule: cycl(R^betaADfK)-ahx-Cy5.5 (cyclo(R[βAla]D[dF]K([Ahx-Cy5.5]))) [reference compound]
- fluorescence signal intensity on cells ([3]; fixed HN cells, conjugate 10 M, 1 h at r.t.): did not result in fluorescence signal intensity

B1: linear peptide RTDLDSLRT (peptide)
peptide: RTDLDSLRT
notes: also called control peptide (plasma stability)
- IC50 [4]: 6 to 33 nM
- IC50 [5]: 8 to 100 nM

B2: Compound 8, cyclic peptide A R G D L D L p P (peptide)
peptide: cyclo(ARGDLDL[dP]P)
SMILES: CC(C)C[C@@H]1NC(=O)[C@H](CC(=O)O)NC(=O)CNC(=O)[C@H](CCCNC(=N)N)NC(=O)[C@H](C)NC(=O)[C@@H]2CCCN2C(=O)[C@H]2CCCN2C(=O)[C@H](CC(C)C)NC(=O)[C@H](CC(=O)O)NC1=O
notes: Comparative compound (*)
- Ratio [6]: 6.1
- IC50 [7]: 14.7 nM
- IC50 [8]: 2.4 nM

B3: Compound 10, cyclic peptide A R G D L A F p P (peptide)
peptide: cyclo(ARGDLAF[dP]P)
SMILES: CC(C)C[C@@H]1NC(=O)[C@H](CC(=O)O)NC(=O)CNC(=O)[C@H](CCCNC(=N)N)NC(=O)[C@H](C)NC(=O)[C@@H]2CCCN2C(=O)[C@H]2CCCN2C(=O)[C@H](Cc2ccccc2)NC(=O)[C@H](C)NC1=O
notes: also called Cpd; 10
- IC50 [9]: 104 nM
- IC50 [8]: 104 nM
- IC50 [10]: 38.4 nM
- IC50 [11]: 10.4 nM

B4: Compound 11, cyclic peptide A R G D L A K p P (peptide)
peptide: cyclo(ARGDLAK[dP]P)
SMILES: CC(C)C[C@@H]1NC(=O)[C@H](CC(=O)O)NC(=O)CNC(=O)[C@H](CCCNC(=N)N)NC(=O)[C@H](C)NC(=O)[C@@H]2CCCN2C(=O)[C@H]2CCCN2C(=O)[C@H](CCCCN)NC(=O)[C@H](C)NC1=O
notes: also called Cpd; 11
- IC50 [9]: 302 nM
- IC50 [8]: 302 nM
- IC50 [10]: 831 nM
- IC50 [11]: 49.3 nM

B5: Compound 1, cyclic peptide A R G D L A A L p P (peptide)
peptide: cyclo(ARGDLAAL[dP]P)
notes: Comparative compound (*); also called Cpd
- IC50 [9]: 76.7 nM
- IC50 [8]: 76.7 nM
- IC50 [10]: 454 nM
- IC50 [11]: 115 nM
